Values belong to the molecule of their own block, whether it stands above or below them.
Assays:
[1] = biological target: Carcinoembryonic antigen (CEA) (UniProt P06731); assay: SPR (Biacore 2000), oxidised CEA immobilised on CM5 chip, Fab′ injected
[2] = biological target: Carcinoembryonic antigen (CEA) (UniProt P06731); assay: SPR (Biacore 2000), oxidised CEA immobilised; relative to unmodified hA5B7 Fab′
human TNF = biological target: T1, human TNF (human, UniProt P01375 77-233); assay: BIAcore as in Example 3: sample captured by anti-Fab′ antibody, human TNF passed over
T1 construct: Soluble human TNF, used in the L929 assay and passed over captured antibody in BIAcore; also called human TNFα
T1 sequence (P01375 77-233 limits assumed): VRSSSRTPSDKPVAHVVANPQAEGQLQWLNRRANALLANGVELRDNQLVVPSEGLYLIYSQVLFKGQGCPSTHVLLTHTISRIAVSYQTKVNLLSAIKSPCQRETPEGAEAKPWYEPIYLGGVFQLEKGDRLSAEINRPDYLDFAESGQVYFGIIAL

Carcinoembryonic antigen (CEA), sequence (P06731 35-685 limits assumed): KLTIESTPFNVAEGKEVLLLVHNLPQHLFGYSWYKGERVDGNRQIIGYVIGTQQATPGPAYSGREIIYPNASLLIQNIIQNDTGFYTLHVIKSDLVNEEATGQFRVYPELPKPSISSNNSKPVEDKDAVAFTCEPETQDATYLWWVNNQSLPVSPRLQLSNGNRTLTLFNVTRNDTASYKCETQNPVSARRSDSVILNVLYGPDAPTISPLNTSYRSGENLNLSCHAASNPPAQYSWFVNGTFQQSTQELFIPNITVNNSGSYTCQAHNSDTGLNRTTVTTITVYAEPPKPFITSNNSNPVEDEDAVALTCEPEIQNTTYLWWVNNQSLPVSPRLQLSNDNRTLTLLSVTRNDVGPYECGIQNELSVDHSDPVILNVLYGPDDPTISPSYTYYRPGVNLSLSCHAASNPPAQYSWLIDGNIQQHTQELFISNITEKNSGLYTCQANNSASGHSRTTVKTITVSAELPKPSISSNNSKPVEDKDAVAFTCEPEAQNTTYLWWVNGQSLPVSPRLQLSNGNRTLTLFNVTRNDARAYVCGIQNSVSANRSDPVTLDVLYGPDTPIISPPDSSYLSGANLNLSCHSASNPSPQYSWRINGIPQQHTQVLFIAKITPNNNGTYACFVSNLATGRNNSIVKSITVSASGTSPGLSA

Kd [1]: 1.87 nM
koff [1]: 0.000161 s⁻¹
kon [1]: 86000 M⁻¹ s⁻¹
Immunoreactivity [2]: 100%
Molecule: hA5B7 Fab′ (unmodified)

Kd (human TNF): 0.156 nM
B1: hTNF40 IgG (antibody, V domains shown)
VH: QIQLVQSGPELKKPGETVKISCKASGYVFTDYGMNWVKQAPGKAFKWMGWINTYIGEPIYVDDFKGRFAFSLETSASTAFLQINNLKNEDTATYFCARGYRSYAMDYWGQGTSVTVSS
VL: DIVMTQSQKFMSTSVGDRVSVTCKATQNVGTNVAWYQQKPGQSPKALIYSASFLYSGVPYRFTGSGSGTDFTLTISTVQSEDLAEYFCQQYNIYPLTFGAGTKLELKR
